In one test the test system is 5C.C7 TCR. In words: Single-molecule FRET (smFRET) measurement of TCR–pMHC bond distance on lipid bilayer (TIRF). The test is classed as cell-based, mouse. Conditions: 1 µM LA, 1 h pretreatment and continuous presence, smFRET 37 °C, K5, MCC, 102S, 339–1295 trajectories per histogram. Here is the method:
We next performed Cy3/Cy5 single-molecule FRET (smFRET) on a lipid bilayer to measure the conformations of single TCR–pMHC bonds using TIRF microscopy (Fig. 2 and Fig. S1b). TCR–pMHC bond formation at live T-cell membrane brought the donor Cy3 and the acceptor Cy5 into close enough proximity to produce smFRET (Figs. 1a and 2a). The fluorescent intensities of Cy3 and Cy5 were simultaneously recorded in real time (Fig. 2b, top panel, and Fig. S4a), and the EFRET values were calculated based on the fluorescence intensities of the donor Cy3 and the acceptor Cy5 (Fig. 2b, bottom panel). […] By plotting the EFRET histogram and fitting it with a Gaussian function, we determined the most probale EFRET value of 0.7, corresponding to a 47 ± 3 Å distance between the 5C.C7 TCR and the super agonist K5 pMHC in a representative smFRET trajectory (Fig. 2c). […] We further measured the average TCR–pMHC bond distances using ensemble FRET on both a lipid bilayer and a glass surface (Figs. S4b and S7), and the results confirmed the single-bond measurements obtained using smFRET (Fig. 2d).
For the FRET measurements between TCRs and pMHCs on the cell surface (FRET1), we generated a peptide-exchangeable CLIP-IE^k molecule.[41] […] The protein fractions were analyzed by SDS-PAGE. […]

Test [1] deals with TCR microclusters of 5C.C7 T cells. The test can be described thus: TCR microcluster formation at the T-cell synapse. The test is classed as cell-based, mouse. Conditions: 1 µM LA. From the text: TCRs form microclusters upon antigen stimulation (Movie S4). To measure the conformational dynamics of single TCR–pMHC bonds without possible interference from TCR microclusters, we used latrunculin A (LA) to prevent the formation of TCR microclusters during smFRET measurements. […] We then performed smFRET in the absence of TCR microclusters.
To test whether TCR–CD3ζ conformational changes were dependent on TCR signaling, we used an Src kinase inhibitor PP2[27] to block TCR signaling. Consistent with the results of a previous study,[21] […] To reveal the role of TCR signaling in TCR–CD3ζ conformational changes, we plotted the time trajectories of the normalized intramolecular TCR–CD3ζ distances against the stimulation time in the absence and presence of PP2 (Fig. 4d). In the absence of PP2, the intracellular CD3ζ chain quickly separated from the TCR extracellular domain upon TCR engagement with the K5 pMHC and then reached a stable, fully extended TCR–CD3ζ conformation.
To measure the TCR–pMHC bond distance by smFRET in the absence of CD4 binding, T cells were incubated with 10 μg/mL anti-CD4 antibody (GK 1.5, Biolegend) and 0.027 µg/µL of Cy5-J1 scFV for 30 min at 4 °C. After three washes, the cells were added to a lipid bilayer containing Cy3-pMHCs, and smFRET assays were performed in the continuous presence of 10 μg/mL anti-CD4 antibody at 37 °C using TIRF microscopy. […]

The target in test [2] is 5C.C7 TCR (mouse (5C.C7 TCR transgenic mice)). In words: FRET or BRET; ensemble Cy3/Cy5 FRET1 at the synapse; His-tagged Cy3-pMHC on a lipid bilayer (95 molecules/um^2) or a PEG-Ni2+ glass surface with ICAM-1 and B7-1; TCR on live primary 5C.C7 T cells labelled with scFv J1-Cy5; 37 °C. For orientation: In BRET a luciferase serves as donor, and the signal depends on an acceptor being close.

For test [3] the target is unchanged. In words: 2D micropipette adhesion frequency assay; biotinylated pMHC monomers on human RBCs by biotin–streptavidin; 5C.C7 T-cell blasts pre-incubated with 10 ug/mL anti-CD4 (GK 1.5); contact times 0.25-5 s, 50 cycles each; 25 °C (legend of Fig. 5); effective 2D constants from a probabilistic kinetic model.
Test [4] has the same target.

The term koff denotes the rate constant with which the complex falls apart. Read a low koff as a long-lived complex.

With `C/C1=C/C(=O)O[C@@H]2C[C@@H](CC[C@H](C)/C=C\C=C\CC1)O[C@@](O)([C@@H]1CSC(=O)N1)C2` [latrunculin A], the “effect on TCR–pMHC bond distances (latrunculin A)” value with 5C.C7 TCR is recorded as “very close to those measured in the presence of TCR microclusters”; in the test with 5C.C7 TCR (listed as LA), “no differences in the TCR–pMHC bond distances”. The “effect of LA on TCR microcluster formation” value in test [1] is on record as “no TCR microclusters were observed”.

Regarding “K5(C)-Cy3 peptide on His-tagged IE^k (from UniProt P04230 30-225) (peptide-MHC)”, the average synaptic E FRET1 in test [2] is 0.79.

In the case of “MCC(C)-Cy3 peptide on His-tagged IE^k (from UniProt P04230 30-225) (peptide-MHC)”, the average synaptic E FRET1 in test [2] amounted to 0.54.

“T102S(C)-Cy3 peptide on His-tagged IE^k (from UniProt P04230 30-225) (peptide-MHC)” yielded an average synaptic E FRET1 in test [2] of 0.29.

In test [3], “biotinylated monomeric IE^k covalently complexed with the 102S peptide (from UniProt P04230 30-225) (peptide-MHC)” gave an AcKa (effective 2D affinity) of 1.6e-05 µm^4, an AcKon (effective 2D on-rate) of 2.4e-06 µm^4 s^−1 and a koff of 1.5 s⁻¹. The same compound returned a separation between the TCR and CD3ζ after TCR–pMHC binding (transmembrane GFP/Alexa568 FRET2, lipid bilayer, 37 °C) in test [4] of 5 Å.

In test [3], “biotinylated monomeric IE^k covalently complexed with the K5 peptide (from UniProt P04230 30-225) (peptide-MHC)” gave an AcKa (effective 2D affinity) of 0.00037 µm^4, an AcKon (effective 2D on-rate) of 3.6e-05 µm^4 s^−1 and a koff of 1 s⁻¹. In test [4], the separation between the TCR and CD3ζ after TCR–pMHC binding (transmembrane GFP/Alexa568 FRET2, lipid bilayer, 37 °C) came out at 15 Å.

In test [3], “biotinylated monomeric IE^k covalently complexed with the MCC peptide (from UniProt P04230 30-225) (peptide-MHC)” returned an AcKa (effective 2D affinity) of 0.00015 µm^4, an AcKon (effective 2D on-rate) of 2e-05 µm^4 s^−1 and a koff of 1.3 s⁻¹. Besides, the separation between the TCR and CD3ζ after TCR–pMHC binding (transmembrane GFP/Alexa568 FRET2, lipid bilayer, 37 °C) in test [4] amounted to 10 Å.

Source of the values: paper PMC7052167, “TCR–pMHC bond conformation controls TCR ligand discrimination” (Cellular and Molecular Immunology, 2019).
